Laboratory results from patent US20250382363A1 (NUMAB THERAPEUTICS, published 2025).

Legend:
[1] = molecular target: T1, human a-PD-L1 Fc (Sino Biological, 10084-H02H, LC11NO2402) (human, UniProt Q9NZQ7 19-239); assay: SPR, PD-L1 Fc immobilised, scFv analyte, 1:1 fit
T1 construct: Bought Fc fusion immobilised on the SPR chip; Printed as 'a-PD-L1 Fc' but used as the antigen (ligand) for the anti-PD-L1 scFvs; also called Human PD-L1; not shown: Fc part
Method: The mutation variants were then injected at concentrations of 10 nM, 2 nM and 0.4 nM over the ligand-immobilized and reference spots. The wild type variants were used as a control, while an empty spot was used as reference.
After each cycle with analyte, the surface was regenerated with a 3M MgCl₂ solution, thereby allowing the next analyte cycle to have only free ligand available. Binding affinity KD was globally calculated by the Bruker SPR software based on the binding association (kₒₙ) and dissociation (Koff) rate, by fitting a 1:1 Langmuir model to the curves obtained by the cycles with the three different concentrations of the analyte.

[2] = molecular target: pre-existing anti-drug antibodies (ADA) present in human sera; assay: pre-existing ADA ELISA, scFv coated, human sera unspiked vs spiked

T1 sequence (Q9NZQ7 19-239 limits assumed): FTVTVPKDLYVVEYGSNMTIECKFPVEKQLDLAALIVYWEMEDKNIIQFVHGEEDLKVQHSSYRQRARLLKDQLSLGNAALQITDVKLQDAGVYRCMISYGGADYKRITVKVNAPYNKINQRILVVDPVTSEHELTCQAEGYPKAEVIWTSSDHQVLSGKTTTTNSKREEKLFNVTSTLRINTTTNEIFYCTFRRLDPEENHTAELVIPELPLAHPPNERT

Row | Kd [1] [nM] | n-fold to wt [1] [fold] | Mean No of serum samples >30% inhibition (30% CCP) with SCP (serum samples) [2] | No of serum samples >30% inhibition (30% CCP) without SCP (serum samples) [2] | Binder
1 | 0.049 | 1 | 9 | 18 | PRO2230 (scFv 37-20-B03-sc09.1) (scFv, also called PRO2230 wt; a-PD-L1 wt) scFv: DIQMTQSPASLSASVGDRVTITCQASQSIGTYLAWYQQKPGKPPKLLIYRAFILASGVPSRFSGSGSGTDFTLTISSLQPEDFATYYCQSNFYSDSTTIGPNAFGTGTKVTVLGGGGGSGGGGSGGGGSGGGGSEVQLVESGGGLVQPGGSLRLSCAASGFSFNSDYWIYWVRQAPGKGLEWIASIYGGSSGNTQYASWAQGRFTISRDNSKNTVYLQMNSLRAEDTAVYFCARGYVDYGGATDLWGQGTLVTVSS
2 | 0.025 | 0.5 | 5 | 5 | PRO2914 (scFv 37-20-B03-sc09.1_(T101S, L144A, T146Q)) (scFv, PRO2230 variant; VH substitutions, AHo numbering; also called PRO2230 T101S-L144A-T146Q) scFv: DIQMTQSPASLSASVGDRVTITCQASQSIGTYLAWYQQKPGKPPKLLIYRAFILASGVPSRFSGSGSGTDFTLTISSLQPEDFATYYCQSNFYSDSTTIGPNAFGTGTKVTVLGGGGGSGGGGSGGGGSGGGGSEVQLVESGGGLVQPGGSLRLSCAASGFSFNSDYWIYWVRQAPGKGLEWIASIYGGSSGNTQYASWAQGRFTISRDNSKNTVYLQMNSLRAEDSAVYFCARGYVDYGGATDLWGQGTAVQVSS
3 | 0.05 | 1 | 2 | 1 | PRO2915 (scFv 37-20-B03-sc09.1_(L12A, T101S, L144A, T146Q)) (scFv, PRO2230 variant; VH substitutions, AHo numbering; also called PRO2230 L12A-T101S-L144A-T146Q) scFv: DIQMTQSPASLSASVGDRVTITCQASQSIGTYLAWYQQKPGKPPKLLIYRAFILASGVPSRFSGSGSGTDFTLTISSLQPEDFATYYCQSNFYSDSTTIGPNAFGTGTKVTVLGGGGGSGGGGSGGGGSGGGGSEVQLVESGGGAVQPGGSLRLSCAASGFSFNSDYWIYWVRQAPGKGLEWIASIYGGSSGNTQYASWAQGRFTISRDNSKNTVYLQMNSLRAEDSAVYFCARGYVDYGGATDLWGQGTAVQVSS
4 | 0.045 | 0.9 | 1 | 0 | PRO2933 (scFv 37-20-B03-sc09.1_(L144K, T146E, S148K)) (scFv, PRO2230 variant; VH substitutions, AHo numbering; also called PRO2230 L144K-T146E-S148K) scFv: DIQMTQSPASLSASVGDRVTITCQASQSIGTYLAWYQQKPGKPPKLLIYRAFILASGVPSRFSGSGSGTDFTLTISSLQPEDFATYYCQSNFYSDSTTIGPNAFGTGTKVTVLGGGGGSGGGGSGGGGSGGGGSEVQLVESGGGLVQPGGSLRLSCAASGFSFNSDYWIYWVRQAPGKGLEWIASIYGGSSGNTQYASWAQGRFTISRDNSKNTVYLQMNSLRAEDTAVYFCARGYVDYGGATDLWGQGTKVEVKS
5 | 0.058 | 1.2 | 3 | 2 | PRO2913 (scFv 37-20-B03-sc09.1_(T101S, T146Q)) (scFv, PRO2230 variant; VH substitutions, AHo numbering; also called PRO2230 T101S-T146Q) scFv: DIQMTQSPASLSASVGDRVTITCQASQSIGTYLAWYQQKPGKPPKLLIYRAFILASGVPSRFSGSGSGTDFTLTISSLQPEDFATYYCQSNFYSDSTTIGPNAFGTGTKVTVLGGGGGSGGGGSGGGGSGGGGSEVQLVESGGGLVQPGGSLRLSCAASGFSFNSDYWIYWVRQAPGKGLEWIASIYGGSSGNTQYASWAQGRFTISRDNSKNTVYLQMNSLRAEDSAVYFCARGYVDYGGATDLWGQGTLVQVSS
6 | 0.053 | 1.1 | 5 | 5 | PRO2903 (scFv 37-20-B03-sc09.1_(L12R, V103T, L144Q)) (scFv, VH substitutions, AHo numbering; also called PRO2230-L12R-V103T-L144Q) scFv: DIQMTQSPASLSASVGDRVTITCQASQSIGTYLAWYQQKPGKPPKLLIYRAFILASGVPSRFSGSGSGTDFTLTISSLQPEDFATYYCQSNFYSDSTTIGPNAFGTGTKVTVLGGGGGSGGGGSGGGGSGGGGSEVQLVESGGGRVQPGGSLRLSCAASGFSFNSDYWIYWVRQAPGKGLEWIASIYGGSSGNTQYASWAQGRFTISRDNSKNTVYLQMNSLRAEDTATYFCARGYVDYGGATDLWGQGTQVTVSS
